Assay [1] concerns the target T1, human CD39 (Accession No. NM_001776.6) expressed on cells (human) (UniProt P49961).
T1 sequence (looked up): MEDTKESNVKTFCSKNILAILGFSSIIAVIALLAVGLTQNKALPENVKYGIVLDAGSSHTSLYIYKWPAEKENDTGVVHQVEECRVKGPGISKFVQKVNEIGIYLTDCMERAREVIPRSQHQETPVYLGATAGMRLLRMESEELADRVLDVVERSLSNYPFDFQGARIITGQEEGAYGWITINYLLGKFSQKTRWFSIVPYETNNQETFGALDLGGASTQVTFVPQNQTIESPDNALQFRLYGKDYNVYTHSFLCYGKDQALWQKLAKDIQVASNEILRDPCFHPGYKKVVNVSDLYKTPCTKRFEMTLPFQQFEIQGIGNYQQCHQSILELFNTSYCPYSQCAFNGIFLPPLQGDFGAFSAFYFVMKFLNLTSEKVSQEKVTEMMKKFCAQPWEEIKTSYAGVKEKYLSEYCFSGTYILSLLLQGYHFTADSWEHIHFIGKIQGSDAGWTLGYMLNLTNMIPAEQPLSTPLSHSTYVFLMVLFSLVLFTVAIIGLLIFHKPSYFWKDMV
Kind of assay: flow cytometry, Jurkat/TIM-3 + CD39 cells, KD from MFI.

Assay [2] deals with T1, human CD39 (Accession No. NM_001776.6) expressed on cells (human). Put plainly: flow cytometry, Jurkat/CD39 cells, KD from MFI.
For assay [3], the target named is T2, recombinant human CD39 (in-house product, 38 to 478 aa of Accession No. NM_001776.6) (human) (UniProt P49961).
T2 sequence (looked up): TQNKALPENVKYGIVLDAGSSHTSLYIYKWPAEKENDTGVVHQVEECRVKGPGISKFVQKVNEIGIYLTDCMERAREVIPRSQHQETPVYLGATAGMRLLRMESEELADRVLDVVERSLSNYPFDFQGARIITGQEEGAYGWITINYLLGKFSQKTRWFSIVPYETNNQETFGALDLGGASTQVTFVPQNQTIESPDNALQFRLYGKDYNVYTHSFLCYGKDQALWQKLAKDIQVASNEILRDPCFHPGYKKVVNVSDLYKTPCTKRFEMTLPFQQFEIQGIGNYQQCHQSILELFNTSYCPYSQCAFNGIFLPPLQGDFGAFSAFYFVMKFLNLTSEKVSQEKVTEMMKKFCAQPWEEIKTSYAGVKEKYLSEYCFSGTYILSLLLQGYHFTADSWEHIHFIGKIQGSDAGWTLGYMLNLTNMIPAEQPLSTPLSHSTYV
Put plainly: SPR Biacore8K, antibody captured on anti-human IgG, antigen as analyte.

B1: HuP4_41_sc (antibody, part only; not given: linker and LALA Fc, not shown: a dimerising Fc or GST)
scFv, part: QVQLVESGGGVVQPGGSLRLSCVVSGFTLTNYGVHWVRQAPGKGLEWLAVILRRGSTDYNAAFMSRLAISKDNSKNTVYLELNSLRLDDTAVVAGDYFDYWGQGTTVTVSSGGGGSGGGGSGGGGSGGGGSQVQLVESGGGVVQPGGSLRLSCVVSGFTLTNYGVHWVRQAPGKGLEWLAVILRRGSTDYNAAFMSRLAISKDNSKNTVYLELNSLRLDDTAVVAGDYFDYWGQGTTVTVSS
As for B1, the Kd in assay [1] stood at 2.08 nM; in assay [2], 1.88 nM; in assay [3], 0.106 nM. For the same molecule, in assay [3], the koff was determined as 0.000176 s⁻¹. Besides, in assay [3], the kon was determined as 1.66e+06 M⁻¹ s⁻¹.

Values taken from patent publication US20260085127A1.
